Data as given in patent US20060269536.

Assays:
[1] = test system: substrate pentapeptide ER↓VSP
[2] = test system: substrate pentapeptide KLR↓TT
[3] = test system: substrate pentapeptide LR↓SRA
[4] = test system: substrate pentapeptide MTR↓SN
[5] = test system: substrate pentapeptide RGR↓SE
[6] = test system: substrate pentapeptide RR↓SID

## human glandular kallikrein hK2
[1]
  substrate phage display: peptide selected as cleaved by hK2 (scissile bond ↓): ER↓VSP
[2]
  substrate phage display: peptide selected as cleaved by hK2 (scissile bond ↓): KLR↓TT
[3]
  substrate phage display: peptide selected as cleaved by hK2 (scissile bond ↓): LR↓SRA
[4]
  substrate phage display: peptide selected as cleaved by hK2 (scissile bond ↓): MTR↓SN
[5]
  substrate phage display: peptide selected as cleaved by hK2 (scissile bond ↓): RGR↓SE
[6]
  substrate phage display: peptide selected as cleaved by hK2 (scissile bond ↓): RR↓SID
